Experimental data reported in article PMC4401446.
Blank lines part the entries; values can stand above or below the substance they belong to.

Columns and labels:
Assay in all cases: SEC; protein at 500 ug/mL incubated 3 hours at 30°C, then Superdex 75 in 50 mM Tris-HCl pH 8.0, 150 mM NaCl, 5% (v/v) glycerol, calibrated with molecular mass standards; dimer to monomers
[1] = target: human triosephosphate isomerase N15D/N71D double mutant (human)
[2] = target: human triosephosphate isomerase N15D mutant (human)
[3] = target: human triosephosphate isomerase N71D mutant (human)

stoichiometry N [1]: 2
Substance: human triosephosphate isomerase N15D/N71D double mutant (enzyme)

stoichiometry N [2]: 2
Substance: human triosephosphate isomerase N15D mutant (enzyme)

stoichiometry N [3]: 2
Substance: human triosephosphate isomerase N71D mutant (enzyme)
